Experimental data: the RNAGym collection of RNA variant scans (doi:10.1021/acssynbio.7b00057)

B1: Pistol ribozyme (parent)
chain: GGGUCGUUGUUCCAUAAUCGCGUGGAUAUGGCACGCAAGUUUCUACCGGGCACCGUAAAUGUCCGACUGGAGCCGUUCGGGCGGCUAUAAACAGACCUCAGGCCCGAAGCGUGGCGGCACCUGCCGCCGGUGGUAAAAAAGAUCGGAAGAGCACACGUCU

Variants of: B1
Assay: aptazyme ON/OFF ratio, guanine; higher = stronger switching; co-transcriptional cleavage with and without guanine

Variant | aptazyme ON/OFF ratio
U7C U10G U11A C12G C13A | 1.09
U7C U10G U11A C12G C13G | 1.15
U7C U10G U11A C12G C13U | 1.22
U7C U10G U11C C12A C13G | 1.11
U7C U10G U11C C12A C13A | 1.21
U7C U10G U11C C12A C13U | 1.18
U7C U10C C12G C13U | 1.21
U7C U10C C12G C13G | 1.18
U7C U10C C12G C13A | 1.23
U7C U11C C12A C13A | 1.27
U7C U11C C12A C13G | 1.28
U7C U11C C12A C13U | 1.25
U7C U10G U11C C12U C13U | 1.27
U7C U10G U11C C12U C13G | 1.16
U7C U10G U11C C12U C13A | 1.28
U7C U10G U11G C12G C13A | 1.1
U7C U10G U11G C12G C13U | 1.16
U7C U10G U11G C12G C13G | 0.991
U7C U10C U11A C12A C13G | 1.26
U7C U10C U11A C12A C13A | 1.49
U7C U10C U11A C12A C13U | 1.3
U7C U11A | 1.38
U7C U11C | 1.16
U7C U10A U11G C13A | 1.24

Variant | aptazyme ON/OFF ratio
U7C U10A U11G C13U | 1.28
U7C U10A U11G C13G | 1.17
U7C U10G C13G | 1.16
U7C U10G C13A | 1.2
U7C U10G C13U | 1.39
U7C U10G U11A C12U C13A | 1.19
U7C U10G U11A C12U C13G | 1.1
U7C U10G U11A C12U C13U | 1.22
U7C U10G U11C C12G | 1.52
U7C U10G U11C C12U | 1.16
U7C U10G U11C C12A | 2.07
U7C U10C C12U C13U | 1.36
U7C U10C C12U C13G | 1.28
U7C U10C C12U C13A | 1.3
U7C U10C U11G C12G C13A | 1.19
U7C U10C U11G C12G C13G | 1.16
U7C U10C U11G C12G C13U | 1.1
U7C U10C U11C C12U C13U | 1.33
U7C U10C U11C C12U C13A | 1.25
U7C U10C U11C C12U C13G | 1.24
U7C U10C U11G C13G | 1.17
U7C U10C U11G C13U | 1.74
U7C U10C U11G C13A | 0.947
U7C U10C C12G | 1.28

Variant | aptazyme ON/OFF ratio
U7C U10C C12A | 1.26
U7C U10C C12U | 3.58
U7C U10A U11G C12A C13U | 1.17
U7C U10A U11G C12A C13A | 1.17
U7C U10A U11G C12A C13G | 0.975
U7C U10C U11G C12A C13A | 1.11
U7C U10C U11G C12A C13G | 1.19
U7C U10C U11G C12A C13U | 1.33
U7C U10C C12A C13U | 1.34
U7C U10C C12A C13A | 1.37
U7C U10C C12A C13G | 1.18
U7C U10G U11G C12U C13U | 1.3
U7C U10G U11G C12U C13G | 1.1
U7C U10G U11G C12U C13A | 1.13
U7C U10C U11A C13U | 1.38
U7C U10C U11A C13G | 1.21
U7C U10C U11A C13A | 1.14
U7C U10G U11A C13A | 1.1
U7C U10G U11A C13U | 1.08
U7C U10G U11A C13G | 1.18
U7C U10A U11G C12U | 1.19
U7C U10A U11G C12A | 1.29
U7C U10A U11G C12G | 1.18
U7C U10C U11C C12A C13U | 1.2

Variant | aptazyme ON/OFF ratio
U7C U10C U11C C12A C13A | 1.25
U7C U10C U11C C12A C13G | 1.32
U7C U10G U11C C13G | 1.06
U7C U10G U11C C13U | 1.02
U7C U10G U11C C13A | 1.08
U7C U10G | 1.65
U7C U10C | 1.92
U7C U10G U11C C12G C13U | 1.28
U7C U10G U11C C12G C13G | 1.16
U7C U10G U11C C12G C13A | 1.22
U7C U10C U11A C12G C13A | 1.15
U7C U10C U11A C12G C13U | 1.15
U7C U10C U11A C12G C13G | 1.15
U7C U10C C13G | 1.28
U7C U10C C13A | 1.11
U7C U10C C13U | 2.47
U7C U11C C12G C13A | 1.21
U7C U11C C12G C13G | 1.29
U7C U10G U11G C12A C13A | 1.13
U7C U10G U11G C12A C13U | 1.26
U7C U10G U11G C12A C13G | 1.16
U7C U10G C12U C13U | 1.24
U7C U10G C12U C13A | 1.25
U7C U10G C12U C13G | 1.11

Variant | aptazyme ON/OFF ratio
U7C U10G C12G C13U | 1.18
U7C U10G C12G C13A | 1.17
U7C U10G C12G C13G | 1.13
U7C U10G U11G C13A | 1.15
U7C U10G U11G C13G | 1.13
U7C U10G U11G C13U | 1.22
U7C U10C U11A C12U C13U | 1.22
U7C U10C U11A C12U C13A | 1.28
U7C U10C U11A C12U C13G | 1.32
U7C U10G C12A C13U | 1.15
U7C U10G C12A C13G | 1.14
U7C U10G C12A C13A | 1.15
U7C U10G U11A | 1.1
U7C U10G U11G | 1.23
U7C U10G U11C | 1.1
U7C U10C U11G C12U C13U | 1.16
U7C U10C U11G C12U C13A | 1.16
U7C U10C U11G C12U C13G | 1.41
U7C U11C C12G | 1.35
U7C U11C C12A | 1.1
U7C U11A C12U | 1.18
U7C U11A C12A | 1.51
U7C U11A C12G | 1.21
U7C U10A U11G C12G C13U | 1.12

Variant | aptazyme ON/OFF ratio
U7C U10A U11G C12G C13G | 1.16
U7C U10A U11G C12G C13A | 1.26
U7C U11A C12A C13U | 1.28
U7C U11A C12A C13A | 1.23
U7C U11A C12A C13G | 1.25
U7C U10C U11A C12U | 1.42
U7C U10C U11A C12G | 1.38
U7C U10C U11A C12A | 1.53
U7C U10C U11C C13G | 1.14
U7C U10C U11C C13U | 1.08
U7C U10C U11C C13A | 1.07
U7C U11A C13U | 1.23
U7C U11A C13A | 1.21
U7C U11A C13G | 1.04
U7C U10C U11G C12A | 1.35
U7C U10C U11G C12U | 1.18
U7C U10C U11G C12G | 1.3
U7C U11A C12U C13U | 1.16
U7C U11A C12U C13A | 1.18
U7C U11A C12U C13G | 1.17
U7C U10G C12A | 1.11
U7C U10G C12U | 1.32
U7C U10G C12G | 1.18
U7C U11A C12G C13G | 1.16

Variant | aptazyme ON/OFF ratio
U7C U11A C12G C13U | 1.07
U7C U11A C12G C13A | 1.11
U7C U10G U11A C12A | 1.13
U7C U10G U11A C12G | 1.15
U7C U10G U11A C12U | 1.15
U7C U10C U11C C12G C13U | 1.24
U7C U10C U11C C12G C13A | 1.25
U7C U10C U11C C12G C13G | 1.18
U7C U10G U11G C12G | 1.22
U7C U10G U11G C12U | 1.21
U7C U10G U11G C12A | 1.2
U7C U10C U11C | 1.74
U7C U10C U11A | 2.11
U7C U10C U11G | 1.21
U7C U10G U11A C12A C13G | 1.17
U7C U10G U11A C12A C13A | 1.2
U7C U10G U11A C12A C13U | 1.09
U7C U10C U11C C12A | 1.29
U7C U10C U11C C12G | 1.28
U7C U10C U11C C12U | 1.31
U7C U10A U11G C12U C13U | 1.5
U7C U10A U11G C12U C13G | 1.2
U7C U10A U11G C12U C13A | 1.35
